The values that follow come from US20060105442, “Promoters and proteins from Clostridium thermocellum and uses thereof” (published 2006).

This data set concerns the target T1, rGlyR3 (CelR3) (Clostridium thermocellum).
T1 chain: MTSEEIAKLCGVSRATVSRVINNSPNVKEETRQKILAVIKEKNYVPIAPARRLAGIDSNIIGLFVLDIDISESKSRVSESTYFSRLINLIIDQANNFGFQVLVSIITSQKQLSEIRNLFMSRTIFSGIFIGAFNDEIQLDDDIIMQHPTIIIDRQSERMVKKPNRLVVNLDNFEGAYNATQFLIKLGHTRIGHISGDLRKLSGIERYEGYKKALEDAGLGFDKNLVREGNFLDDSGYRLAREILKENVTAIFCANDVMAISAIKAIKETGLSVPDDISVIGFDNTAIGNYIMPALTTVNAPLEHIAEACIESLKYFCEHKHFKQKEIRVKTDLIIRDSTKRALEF
As to the kind of experiment: EMSA; dose dependent; inhibited by laminaribiose. On the technique in general: A gel shift assay detects complexes by their altered migration in electrophoresis.

B1: 18 bp GlyR3 binding site (dsDNA)
DNA 1: AATGAACGCGCGTACATT
DNA 2: AATGTACGCGCGTTCATT
For the molecule B1, the binding result is on record as “binds”.
